Data taken from publication PMC10602909.

Tested on: ZNF506 ZF1-8 (C-terminal zinc finger array) (human)
Experiment: ITC
Details: ITC (MicroCal PEAQ-ITC): 100 mM Tris pH 8, 500 mM NaCl, 25 uM ZnCl2, 10 mM reduced glutathione; protein 20 uM, DNA 200 nM as printed; temperature not stated

PBS-Pro 28 bp dsDNA probe was tested, and the Kd was 0.84 µM.
